In patent US20040197338A1 (published 2004):

Molecular target: T1, P^His (recombinant RSV A2 phosphoprotein (P) with a Histidine tag at its amino terminus, expressed from pETP … (respiratory syncytial virus, A2 strain, UniProt P03421 1-241))
T1 construct: also called P^His protein; recombinant P protein; not shown: N-terminal Histidine tag from vector pET16b
Test: not described at this place (legend of FIG. 10)

KLCGMLLITE [peptide N4.10]
binding result: binds
